PMC2164975

Biological target: GST-QM fusion protein, full-length QM (human) (UniProt P27635)
Assay: pull-down

- ratio between the input and the pulled-down amounts: 95%
Substance: normal full-length PS1, in vitro translated and radiolabeled with [35S]methionine (from UniProt P49768 1-467) (natural protein)
